Consider 3 molecules from PMC5009721.

In data set [1] the target is T1, RNA polymerase II (human (HeLa cells), UniProt P24928;P30876;P19387;O15514;P19388;P61218;P62487;P52434;P36954;P62875;P52435;P53 …). Put plainly: EMSA.
Data set [2] has as its target T2, RNA polymerase II;TBP (TATA-binding protein);TFIIB;TFIIF (human (HeLa cells);human;human;human, UniProt P24928;P30876;P19387;O15514;P19388;P61218;P62487;P52434;P36954;P62875;P52435;P53 …, |||). In words: EMSA. (In general: A gel shift assay detects complexes by their altered migration in electrophoresis.)
Data set [3] concerns the target T2, RNA polymerase II;TBP (TATA-binding …). Put plainly: single-molecule TIRF colocalization, immobilized Pol II.
The target of data set [4] is T1, RNA polymerase II. The data set is described as above.
The target of data set [5] is T2, RNA polymerase II;TBP (TATA-binding …). The description is as above. This is another data set of the same source.

T2 sequence (P20226 whole entry, chain 13 of 2): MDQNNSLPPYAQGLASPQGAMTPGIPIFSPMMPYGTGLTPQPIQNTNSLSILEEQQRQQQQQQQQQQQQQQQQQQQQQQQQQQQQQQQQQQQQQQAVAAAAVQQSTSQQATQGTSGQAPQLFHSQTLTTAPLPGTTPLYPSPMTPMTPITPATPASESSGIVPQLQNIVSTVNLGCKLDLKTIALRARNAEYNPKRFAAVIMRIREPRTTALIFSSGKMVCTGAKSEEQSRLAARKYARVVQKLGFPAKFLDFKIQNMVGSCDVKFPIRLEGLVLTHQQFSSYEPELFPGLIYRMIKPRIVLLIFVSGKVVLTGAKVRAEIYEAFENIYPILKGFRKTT
T2 sequence (Q00403 whole entry, chain 14 of 2, further chain): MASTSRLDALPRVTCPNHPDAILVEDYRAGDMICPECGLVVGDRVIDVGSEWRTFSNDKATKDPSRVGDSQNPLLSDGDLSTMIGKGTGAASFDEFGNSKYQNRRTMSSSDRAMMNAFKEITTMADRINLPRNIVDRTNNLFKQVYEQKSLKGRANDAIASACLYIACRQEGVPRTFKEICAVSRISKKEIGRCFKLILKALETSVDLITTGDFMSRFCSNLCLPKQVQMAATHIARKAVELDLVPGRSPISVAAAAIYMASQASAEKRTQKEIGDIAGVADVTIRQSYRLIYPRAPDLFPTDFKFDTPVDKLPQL

B1: AdML three-piece heteroduplex (-40 to +37), Cy3/Cy5, quencher (dsDNA)
DNA 1: CCTGAGGTTAGTGTGAGTAGTGATTAAAGATAGTGATGAGGACGAACGCGCCCCCACCCCCTTTTATAGCCCCCCTT
DNA 2: AAGGGGGGCTATAAAAGGGGGTGGGGGCGCGAAGCAGGAGTAGACTATCTTTAATCACTA
DNA 3: CTCACACTAACCTCAGG
Consider B1, for which the binding result in data set [1] and in data set [2] was “binds” in each case.

B2: AdML three-piece heteroduplex (-40 to +37), Cy3/Cy5, no quencher, no biotin (dsDNA)
DNA 1: B1 DNA 1
DNA 2: B1 DNA 2
DNA 3: CTCACACTAACCTCAGG
Take B2: the binding result in data set [3] and in data set [4] was “binds” throughout.

B3: 18 bp TATA DNA (dsDNA)
DNA 1: CGTCCCTTTTATAGCCTG
DNA 2: CAGGCTATAAAAGGGACG
For B3, the binding result in data set [5] is on record as “binds”.
